Data: PMC9598255

B1: TMPRSS2 (transmembrane protease serine 2): N286Q (protein)
parent chain: MPPAPPGGESGCEERGAAGHIEHSRYLSLLDAVDNSKMALNSGSPPAIGPYYENHGYQPENPYPAQPTVVPTVYEVHPAQYYPSPVPQYAPRVLTQASNPVVCTQPKSPSGTVCTSKTKKALCITLTLGTFLVGAALAAGLLWKFMGSKCSNSGIECDSSGTCINPSNWCDGVSHCPGGEDENRCVRLYGPNFILQVYSSQRKSWHPVCQDDWNENYGRAACRDMGYKNNFYSSQGIVDDSGSTSFMKLNTSAGNVDIYKKLYHSDACSSKAVVSLRCIACGVNLNSSRQSRIVGGESALPGAWPWQVSLHVQNVHVCGGSIITPEWIVTAAHCVEKPLNNPWHWTAFAGILRQSFMFYGAGYQVEKVISHPNYDSKTKNNDIALMKLQKPLTFNDLVKPVCLPNPGMMLQPEQLCWISGWGATEEKGKTSEVLNAAKVLLIETQRCNSRYVYDNLITPAMICAGFLQGNVDSCQGDSGGPLVTSKNNIWWLIGDTSWGSGCAKAYRPGVYGNVMVFTDWIYRQMRADG
B2: TMPRSS2 (transmembrane protease serine 2): N250Q/N286Q (protein)
parent chain: B1 parent chain
B3: TMPRSS2 (transmembrane protease serine 2): N250Q (protein)
parent chain: B1 parent chain

Experiments:
Settings in all cases: glycan lost; control: wild type
[1] = flow cytometry of cell surface TMPRSS2, HEK293
[2] = co-immunostaining with ER marker KDEL, HEK293
[3] = co-immunostaining with Golgi marker GM130, HEK293

Protein	localisation_or_trafficking [1]	localisation_or_trafficking [2]	localisation_or_trafficking [3]
B1	no change	no change	no change
B2		changes	
B3		changes	no change
